This is an account of results in PMC6323126, “Architecture, substructures, and dynamic assembly of STRIPAK complexes in Hippo signaling” (Cell Discovery, 2019).

To fix the notation:
B3: MST4 kinase domain (residues 1–300) (domain or fragment)
chain: not shown
notes: MST4 (STK26), human, residues 1-300; also called N-terminal kinase domain of MST4; source: E. coli BL21 (DE3) CodonPlus, purified
B4: FHA domain (residues 5–135) of SLMAP (domain or fragment, human, UniProt Q14BN4 5-135, looked up)
chain: LAIFTCRPNSHPFQERHVYLDEPIKIGRSVARCRPAQNNATFDCKVLSRNHALVWFDHKTGKFYLQDTKSSNGTFINSQRLSRGSEESPPCEILSGDIIQFGVDVTENTRKVTHGCIVSTIKLFLPDGMEA
notes: also called SLMAP (FHA); SLMAP FHA domain; source: E. coli BL21 (DE3) CodonPlus, purified

Data set [1] concerns the target T1, SIKE1 CC1 (residues 5–65) (human, UniProt Q9BRV8 5-65).
T1 construct: SIKE1, human, residues 5-65; Homodimer within the 2:2 crystal complex; also called residues 5–65 of SIKE1; source: E. coli BL21 (DE3) CodonPlus, purified
T1 sequence (looked up): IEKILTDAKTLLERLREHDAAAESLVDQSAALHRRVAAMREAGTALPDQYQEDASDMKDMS
In words: not stated; Kd of the minimal regions, Supplementary Fig. S7c; method not given. Conditions: both partners purified.

Data set [2] deals with the molecule itself. Kind of data set: crystal structure; SIKE1 CC1-SLMAP CC1 complex reconstituted 1:1 and gel-filtered, 2.3 Å; 0.1 M sodium citrate (pH 5.5), 15% PEG 6000, 16 °C.
Data set [3] addresses T1, SIKE1 CC1 (residues 5–65). Described as above. Conditions: both partners purified.
The target in data set [4] is T2, STRIP1 (full-length, His-tagged, insect cells) (UniProt Q5VSL9 1-837).
T2 construct: STRIP1, full length; His tag is TEV-cleavable; also called His-STRIP1; FAM40A; source: High Five insect cells (baculovirus), purified
In words: pull-down; pulldown with the kinase dephosphorylated with λPPase and then autophosphorylated with ATP (and magnesium ion). The note with it: both partners purified.

For data set [5], the target named is T2, STRIP1 (full-length, His-tagged, insect …). In words: pull-down; pulldown with purified recombinant proteins shown in supplementary figures; whether GST or MBP and who carried the tag not told. The note with it: both partners purified.
Data set [6] addresses T3, MST2 (recombinant, wildtype) (human, UniProt Q13188 1-491).
T3 construct: MST2 (STK3), human; also called STK3; Hippo kinase MST2; source: E. coli BL21 (DE3) CodonPlus, purified
T3 sequence (looked up): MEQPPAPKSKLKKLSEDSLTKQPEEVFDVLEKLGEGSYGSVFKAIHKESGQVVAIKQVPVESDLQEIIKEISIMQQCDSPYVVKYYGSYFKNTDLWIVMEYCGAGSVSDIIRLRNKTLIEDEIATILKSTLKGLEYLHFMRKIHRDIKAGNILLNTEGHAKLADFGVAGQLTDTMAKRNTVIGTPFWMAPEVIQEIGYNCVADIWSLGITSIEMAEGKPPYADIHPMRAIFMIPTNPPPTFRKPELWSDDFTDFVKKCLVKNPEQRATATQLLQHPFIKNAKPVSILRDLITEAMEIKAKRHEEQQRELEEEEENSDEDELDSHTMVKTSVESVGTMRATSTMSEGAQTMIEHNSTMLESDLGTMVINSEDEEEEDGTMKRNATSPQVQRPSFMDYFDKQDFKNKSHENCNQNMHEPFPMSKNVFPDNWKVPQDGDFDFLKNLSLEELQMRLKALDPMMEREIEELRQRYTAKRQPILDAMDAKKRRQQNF
Described as above. The note with it: both partners purified.

The target in data set [7] is B3. Described as above. Conditions: both partners purified.
The next data set addresses T4, MST4 (recombinant) (human, UniProt Q9P289 1-416).
T4 construct: MST4 (STK26), human; also called STK26; source: E. coli BL21 (DE3) CodonPlus, purified
The data set is described as above. The note with it: both partners purified.

Data set [8] addresses T5, MST2 kinase domain (residues 1–308) (human, UniProt Q13188 1-308).
T5 construct: also called kinase domain of MST2; source: E. coli BL21 (DE3) CodonPlus, purified
T5 sequence (looked up): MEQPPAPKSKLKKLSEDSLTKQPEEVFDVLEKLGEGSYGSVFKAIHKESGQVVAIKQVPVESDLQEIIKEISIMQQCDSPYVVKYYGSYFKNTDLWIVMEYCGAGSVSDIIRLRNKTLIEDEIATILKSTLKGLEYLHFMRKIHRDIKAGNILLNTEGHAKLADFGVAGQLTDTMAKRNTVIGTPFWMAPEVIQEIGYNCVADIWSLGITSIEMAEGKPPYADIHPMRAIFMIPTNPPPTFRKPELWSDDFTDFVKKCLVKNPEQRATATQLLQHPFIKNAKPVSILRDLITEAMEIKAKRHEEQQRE
In words: pull-down; GST pulldown: GST-tagged protein, partner and glutathione Sepharose mixed at 4 °C for 1 h in 20 mM HEPES (pH 7.5), 100 mM NaCl; eluted with 20 mM reduced glutathione; SDS-PAGE, Coomassie staining. Conditions: both partners purified.

Data set [9] deals with B4. Described as above. Conditions: both partners purified.

The Kd is the free concentration of one partner at which half of the binding sites on the other are occupied at equilibrium, for simple one-to-one binding. Read a high Kd as lower affinity. Broadly, the stoichiometry N is the number of molecules, sites or subunits per partner or assembly.

T4 sequence (Q9P289 whole entry): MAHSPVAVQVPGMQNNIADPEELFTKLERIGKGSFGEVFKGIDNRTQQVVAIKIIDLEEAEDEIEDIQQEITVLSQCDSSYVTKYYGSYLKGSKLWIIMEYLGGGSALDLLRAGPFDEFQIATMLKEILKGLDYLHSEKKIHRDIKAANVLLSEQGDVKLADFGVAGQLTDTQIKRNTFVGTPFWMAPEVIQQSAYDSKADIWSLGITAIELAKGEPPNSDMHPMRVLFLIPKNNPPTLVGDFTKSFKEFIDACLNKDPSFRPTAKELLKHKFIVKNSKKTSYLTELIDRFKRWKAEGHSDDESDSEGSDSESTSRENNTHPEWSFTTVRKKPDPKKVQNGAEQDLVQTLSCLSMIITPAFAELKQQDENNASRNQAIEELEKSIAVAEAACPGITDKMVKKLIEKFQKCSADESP

B1: SLMAP CC1 (residues 167–226) (domain or fragment, human, UniProt Q14BN4 167-226, looked up)
chain: QLSQYLQEALHREQMLEQKLATLQRLLAITQEASDTSWQALIDEDRLLSRLEVMGNQLQA
notes: Homodimer within the 2:2 crystal complex; source: E. coli BL21 (DE3) CodonPlus, purified
As to B1, the Kd in [1] turned out to be 6.9 µM. The results for the “stoichiometry N” value in data set [2] and in data set [3] were 2 and 1 SIKE1 CC1 per SLMAP CC1 (2:2), respectively.

B2: GST-tagged MST2 (enzyme, human, UniProt Q13188 1-491, looked up)
chain: MEQPPAPKSKLKKLSEDSLTKQPEEVFDVLEKLGEGSYGSVFKAIHKESGQVVAIKQVPVESDLQEIIKEISIMQQCDSPYVVKYYGSYFKNTDLWIVMEYCGAGSVSDIIRLRNKTLIEDEIATILKSTLKGLEYLHFMRKIHRDIKAGNILLNTEGHAKLADFGVAGQLTDTMAKRNTVIGTPFWMAPEVIQEIGYNCVADIWSLGITSIEMAEGKPPYADIHPMRAIFMIPTNPPPTFRKPELWSDDFTDFVKKCLVKNPEQRATATQLLQHPFIKNAKPVSILRDLITEAMEIKAKRHEEQQRELEEEEENSDEDELDSHTMVKTSVESVGTMRATSTMSEGAQTMIEHNSTMLESDLGTMVINSEDEEEEDGTMKRNATSPQVQRPSFMDYFDKQDFKNKSHENCNQNMHEPFPMSKNVFPDNWKVPQDGDFDFLKNLSLEELQMRLKALDPMMEREIEELRQRYTAKRQPILDAMDAKKRRQQNF
notes: MST2 (STK3), human; also called MST2/pMST2; source: E. coli BL21 (DE3) CodonPlus, purified; not shown: GST, N-terminal, kept
As to B2, the binding result in data set [4] is on record as “binds”.
In the case of B3, the binding result in data set [5] is “binds”.
Regarding B4, the binding result (in [6]; in data set [7]; with MST4 (recombinant); in [8]) was “binds” in each case.

B5: MST2 middle linker region (residues 308–435) (domain or fragment, human, UniProt Q13188 308-435, looked up)
chain: ELEEEEENSDEDELDSHTMVKTSVESVGTMRATSTMSEGAQTMIEHNSTMLESDLGTMVINSEDEEEEDGTMKRNATSPQVQRPSFMDYFDKQDFKNKSHENCNQNMHEPFPMSKNVFPDNWKVPQDG
notes: also called linker region of MST2; source: E. coli BL21 (DE3) CodonPlus, purified
B5: the binding result in data set [9] is listed as “binds”.
